Assays:
[1] = target: G protein of RSV A/Long (virus, ATCC Cat. No. VR-26) (Respiratory syncytial virus A/Long) (UniProt P20895); experiment: cell-based or functional assay
[2] = target: T1, Sym-1705 (RSV-G type A central region peptide 145-201) (Respiratory syncytial virus type A); experiment: BLI (Octet Red384), biotinylated peptide on streptavidin sensor tips
[3] = target: T2, Sym-1706 (RSV G central conserved domain (CCD) peptide, type A 145-184) (Respiratory syncytial virus type A); experiment: as above
[4] = target: T3, Sym-1788 (RSV-G type B central region peptide 145-201) (Respiratory syncytial virus type B); experiment: as above
[5] = target: T4, Sym-1789 (RSV-G type B central region peptide 145-184) (Respiratory syncytial virus type B); experiment: as above
[6] = target: T1, Sym-1705 (RSV-G type A central region …); experiment: ELISA, antibody titrated on biotinylated peptide on avidin plates (FIG. 3)
[7] = target: T2, Sym-1706 (RSV G central conserved …); experiment: as above
[8] = target: T3, Sym-1788 (RSV-G type B central region …); experiment: as above
[9] = target: T4, Sym-1789 (RSV-G type B central region …); experiment: as above

B1: CR9505 (an antibody based on 131-2G, comprising the heavy and light chain variable region of 131-2G) (antibody, from another filing, V domains shown)
VH: EVQLQQSGPELVKPGTSVKISCKASGYSFTGFTMNWVKQSHGKNLEWFGLINPFNGNTGYNQKFKGKATLTVDKSSSTAFMELLSLTSEDSAVYYCARSGKSYDYEAWFTYWGQGTLVTVSA
VL: DIVMTQTTLSLPVSLGNQASISCRSSQTIVHTNGNTYLEWYLQKPGQSPKLLIYKVSNRFSGVPDRFSGSGSGTDFILNISRVEAEDLGVYYCFQGSHVPFTFGSGTKLEIKR
Neutralization IC50 (plaque reduction assay, Vero cells) [1]: 18 ng/mL

B2: CB010.7 (antibody, V domains shown)
VH: QVQLVESGGGVVQPGRSLRLSCAASGFTFNTHGMHWVRQAPGKGLEWVAVMSYDGTKKYHADSVKGRFTISRDNSKNTLYLQMNSLRVEDTAIYYCAKVGELRSFDWLLADGTAYYYYGMDVWGQGTTVTVSS
VL: not shown
binding response (Octet) [RU] [2]: 1.25 RU | binding response (Octet) [RU] [3]: 1.74 RU | binding response (Octet) [RU] [4]: 1.94 RU | binding response (Octet) [RU] [5]: 2.96 RU | IC50 [6]: 0.02 µg/mL | IC50 [7]: 0.02 µg/mL | IC50 [8]: 0.02 µg/mL | IC50 [9]: 0.02 µg/mL

B3: CB003.1 (antibody, V domains shown)
VH: QVQLVQSGPELRKPGASVTVSCKASGYTFTTYYIHWVRQAPGGGLDWMGMINTGSGVTSYAQKFQGRVAMTRDTSTSTVFMELSSLRFEDTALYYCARMYSGSWYPFDYWGQGALVTVSS
VL: EIVLTQSPGTLSLSPGERATLSCRASQNINGNYLAWYQQKPGLAPRLLIYEASSRATGIPDRFSGSGSGTDFTLTISSLEPEDFGVYYCQQYGTSPFFTFGPGTKVDIK
binding response (Octet) [RU] [2]: 3.48 RU | binding response (Octet) [RU] [3]: 3.36 RU | binding response (Octet) [RU] [4]: 3.28 RU | binding response (Octet) [RU] [5]: 3.2 RU | IC50 [6]: 0.02 µg/mL | IC50 [7]: 0.02 µg/mL | IC50 [8]: 0.02 µg/mL | IC50 [9]: 0.02 µg/mL

From patent US20160145321A1
